Source: PMC4575180 (2015)

Molecular target: T1, syntaxin3 (Rattus norvegicus (Rat), UniProt Q08849)
T1 chain: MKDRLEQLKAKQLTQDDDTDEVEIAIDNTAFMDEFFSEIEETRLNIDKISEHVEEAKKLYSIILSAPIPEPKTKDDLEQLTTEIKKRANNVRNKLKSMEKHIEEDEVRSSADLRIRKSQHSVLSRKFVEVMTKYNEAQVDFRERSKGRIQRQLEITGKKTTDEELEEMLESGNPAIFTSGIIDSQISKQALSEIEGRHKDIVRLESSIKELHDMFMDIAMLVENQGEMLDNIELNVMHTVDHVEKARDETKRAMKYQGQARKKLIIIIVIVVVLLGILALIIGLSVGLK
Test: pull-down

B1: Munc18c (protein)
chain: MAPPVSERGLKSVVWRKIKTAVFDDCRKEGEWKIMLLDEFTTKLLSSCCKMTDLLEEGITVIENIYKNREPVRQMKALYFISPTPKSVDCFLRDFGSKSEKKYKAAYIYFTDFCPDSLFNKIKASCSKSIRRCKEINISFIPQESQVYTLDVPDAFYYCYSPDPSNASRKEVVMEAMAEQIVTVCATLDENPGVRYKSKPLDNASKLAQLVEKKLEDYYKIDEKGLIKGKTQSQLLIIDRGFDPVSTVLHELTFQAMAYDLLPIENDTYKYKTDGKEKEAVLEEDDDLWVRVRHRHIAVVLEEIPKLMKEISSTKKATEGKTSLSALTQLMKKMPHFRKQISKQVVHLNLAEDCMNKFKLNIEKLCKTEQDLALGTDAEGQRVKDSMLVLLPVLLNKNHDNCDKIRAVLLYIFGINGTTEENLDRLIHNVKIEDDSDMIRNWSHLGVPIVPPSQQAKPLRKDRSAEETFQLSRWTPFIKDIMEDAIDNRLDSKEWPYCSRCPAVWNGSGAVSARQKPRTNYLELDRKNGSRLIIFVIGGITYSEMRCAYEVSQAHKSCEVIIGSTHILTPRKLLDDIKMLNKSKDKVSFKDE
binding result: no binding
